# Starred links: 1 amine or outer side, 2 acyl side, 3 side chain; linkers in the order of their positions; H or OH if unused. Positions of bridges follow the written chain, without caps; N, C: chain ends. Non-standard residues stand in square brackets, D forms with d. Primed or numbered codes have the meaning given here. No end group written: not given here. (Pfbn)GA″ = [Pfbn]GA: (S)-2-amino-3-((carboxymethyl)((perfluorophenyl)methyl)amino)propanoic acid, O=C([C@H](CN(CC(=O)[*:3])Cc1c(F)c(F)c(F)c(F)c1F)N[*:1])[*:2]; (4AcMePip)GAbu = (S)-2-amino-4-(N-(carboxymethyl)-1-methylpiperidine-4-carboxamido)butanoic acid, CN1CCC(C(=O)N(CC[C@H](N[*:1])C(=O)[*:2])CC(=O)[*:3])CC1; (Pfbn)GA = (S)-2-amino-3-((carboxymethyl)((perfluorophenyl)methyl)amino)propanoic acid, O=C([C@H](CN(CC(=O)[*:3])Cc1c(F)c(F)c(F)c(F)c1F)N[*:1])[*:2]; PyrS2″ = (S)-3-amino-1-((pent-4-en-1-yloxy)carbonyl)pyrrolidine-3-carboxylic acid (stapling residue), C=CCCCOC(=O)N1CC[C@@](N[*:1])(C(=O)[*:2])C1; (Me2NPr)GAbu = (S)-2-amino-4-(N-(carboxymethyl)-3-(dimethylamino)propanamido)butanoic acid, CN(C)CCC(=O)N(CC[C@H](N[*:1])C(=O)[*:2])CC(=O)[*:3]; (Tfp)GA = [Tfp]GA: (S)-2-amino-3-((carboxymethyl)(3,3,3-trifluoropropyl)amino)propanoic acid, O=C([C@H](CN(CCC(F)(F)F)CC(=O)[*:3])N[*:1])[*:2]; B5(16) = 2-amino-2-(pent-4-en-1-yl)hept-6-enoic acid = 2,2-bis(4-pentenyl)glycine (stitching residue), C=CCCCC(CCCC=C)(N[*:1])C(=O)[*:2]; B5(4) = 2,2-bis(4-pentenyl)glycine = 2-amino-2-(pent-4-en-1-yl)hept-6-enoic acid (stitching residue), C=CCCCC(CCCC=C)(N[*:1])C(=O)[*:2]; (Tfp)GA″ = (S)-2-amino-3-((carboxymethyl)(3,3,3-trifluoropropyl)amino)propanoic acid, O=C([C@H](CN(CCC(F)(F)F)CC(=O)[*:3])N[*:1])[*:2]; TfeGA = (S)-2-amino-3-((carboxymethyl)(2,2,2-trifluoroethyl)amino)propanoic acid, O=C([C@H](CN(CC(=O)[*:3])CC(F)(F)F)N[*:1])[*:2]; (sBu)GA = [sBu]GA: (2S)-2-amino-3-(sec-butyl(carboxymethyl)amino)propanoic acid, CCC(C)N(CC(=O)[*:3])C[C@H](N[*:1])C(=O)[*:2]; PyrS2 = (S)-3-amino-1-((pent-4-en-1-yloxy)carbonyl)pyrrolidine-3-carboxylic acid, C=CCCCOC(=O)N1CC[C@@](N[*:1])(C(=O)[*:2])C1; (Bn)GA″ = [Bn]GA: (S)-2-amino-3-(benzyl(carboxymethyl)amino)propanoic acid, O=C([C@H](CN(CC(=O)[*:3])Cc1ccccc1)N[*:1])[*:2]; (Me)GA″ = [Me]GA: (S)-2-amino-3-((carboxymethyl)(methyl)amino)propanoic acid, CN(CC(=O)[*:3])C[C@H](N[*:1])C(=O)[*:2]; (Et)GA = [Et]GA: (S)-2-amino-3-((carboxymethyl)(ethyl)amino)propanoic acid, CCN(CC(=O)[*:3])C[C@H](N[*:1])C(=O)[*:2]; (Bn)GA = (S)-2-amino-3-(benzyl(carboxymethyl)amino)propanoic acid, O=C([C@H](CN(CC(=O)[*:3])Cc1ccccc1)N[*:1])[*:2]; B5(22) = 2-amino-2-(pent-4-en-1-yl)hept-6-enoic acid (two alkene side chains), C=CCCCC(CCCC=C)(N[*:1])C(=O)[*:2]; (Me)GA = (S)-2-amino-3-((carboxymethyl)(methyl)amino)propanoic acid, CN(CC(=O)[*:3])C[C@H](N[*:1])C(=O)[*:2]; B5(3) = 2,2-bis(4-pentenyl)glycine (stitching residue), C=CCCCC(CCCC=C)(N[*:1])C(=O)[*:2]; B5 = 2-amino-2-(pent-4-en-1-yl)hept-6-enoic acid, C=CCCCC(CCCC=C)(N[*:1])C(=O)[*:2]; Phe(2-Cl) = N[C@@H](Cc1ccccc1Cl)C(=O)O; Phe(2-OMe) = COc1ccccc1C[C@H](N)C(=O)O; Bta = N[C@@H](Cc1csc2ccccc12)C(=O)O; Lys(iPr) = CC(C)NCCCC[C@H](N)C(=O)O; αAllylPro = C=CC[C@@]1(C(=O)O)CCCN1; tBuAla = CC(C)(C)C[C@H](N)C(=O)O; 3Thi = N[C@@H](Cc1ccsc1)C(=O)O; Cha = N[C@@H](CC1CCCCC1)C(=O)O; S8 = C=CCCCCCC[C@](C)(N)C(=O)O; PyrS2(4) = not defined here
# T1: B-cat-Halo (UniProt P35222 1-781)
# T1 sequence (looked up): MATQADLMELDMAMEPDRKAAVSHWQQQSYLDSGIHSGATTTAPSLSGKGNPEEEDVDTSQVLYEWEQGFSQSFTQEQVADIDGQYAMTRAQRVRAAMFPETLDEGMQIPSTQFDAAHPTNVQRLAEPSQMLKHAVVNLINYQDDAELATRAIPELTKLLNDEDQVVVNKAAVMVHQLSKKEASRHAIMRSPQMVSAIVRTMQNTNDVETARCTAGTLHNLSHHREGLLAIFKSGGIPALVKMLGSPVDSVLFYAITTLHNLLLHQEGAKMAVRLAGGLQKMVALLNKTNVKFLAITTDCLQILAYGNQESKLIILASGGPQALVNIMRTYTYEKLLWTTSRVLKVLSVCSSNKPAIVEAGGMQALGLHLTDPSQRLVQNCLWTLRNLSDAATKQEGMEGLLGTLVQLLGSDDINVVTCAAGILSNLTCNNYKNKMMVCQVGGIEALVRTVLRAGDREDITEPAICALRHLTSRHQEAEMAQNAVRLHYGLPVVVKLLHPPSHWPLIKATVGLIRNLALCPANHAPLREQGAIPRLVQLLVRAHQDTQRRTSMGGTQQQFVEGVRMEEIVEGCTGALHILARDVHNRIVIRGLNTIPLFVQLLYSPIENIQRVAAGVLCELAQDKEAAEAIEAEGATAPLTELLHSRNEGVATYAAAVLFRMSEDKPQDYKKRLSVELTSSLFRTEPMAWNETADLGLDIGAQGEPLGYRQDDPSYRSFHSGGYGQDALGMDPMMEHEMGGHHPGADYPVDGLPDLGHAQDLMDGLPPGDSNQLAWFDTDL
# T2: B-cat-Halo (UniProt P35222 1-781)
# T2 sequence (looked up): T1 sequence (looked up)
# T3: B-cat-Halo (UniProt P35222 1-781)
# T3 sequence (looked up): T1 sequence (looked up)
# B1: I-1622 (peptide)
# peptide: Ac-[αAllylPro]D[tBuAla][B5(3)]D[(Et)GA]AAFN[PyrS2(4)][Phe(2-Cl)][Bta]Q-NH2
# modifications: staple 1-4, 4-11; not fully specified; printed as Ac-PL3-Asp-Npg-B5-Asp-[Et]GA-Ala-Ala-Phe-Asn-PyrS2-2C1F-BztA-Gln-NH2; reading uncertain
# B2: I-1637 (peptide)
# peptide: Ac-[αAllylPro]D[tBuAla][B5(16)]D[(Me)GA]AAFN[PyrS2(4)][3Thi][Bta]Q-NH2
# modifications: staple 1-4, 4-11; not fully specified; printed as Ac-PL3-Asp-Npg-B5-Asp-[Me]GA-Ala-Ala-Phe-Asn-PyrS2-3Thi-BztA-Gln-NH2; reading uncertain
# Target: T1, B-cat-Halo
# Assay: cell-based or functional assay
row,Binder,NanoBRET Abs IC50
1,"Ac-[αAllylPro]D[tBuAla][B5(22)]D[(Me2NPr)GAbu]AAFL[PyrS2][3Thi][Bta]Q-NH2 (staple 1-4, 4-11) [I-2244]",27.4 µM
2,"Ac-[αAllylPro]D[tBuAla][B5(22)]D[(4AcMePip)GAbu]AAFL[PyrS2][3Thi][Bta]Q-NH2 (staple 1-4, 4-11) [I-2245]",> 20 µM

# Target: T2, B-cat-Halo
# Assay: cell-based or functional assay
row,Binder,NanoBRET Abs IC50
1,"[αAllylPro]D[tBuAla][B5]DDAAFN[PyrS2][Cha][Bta]Q-NH2 (staple 1-4, 4-11) [I-1329]",35 µM
2,"[αAllylPro]D[tBuAla][B5(4)]DDAAFF[PyrS2″][Phe(2-OMe)][Bta]Q-NH2 (staple 1-4, 4-11) [I-1328]",5.4 µM

# Target: T3, B-cat-Halo
# Assay: cell-based or functional assay
row,Binder,NanoBRET Abs IC50
1,"Ac-[αAllylPro]D[tBuAla][B5(3)]D[(Bn)GA]AAFN[PyrS2][3Thi][Bta]Q-NH2 (staple 1-4, 4-11) [I-1635]",20.6 µM
2,"Ac-[αAllylPro]D[tBuAla][B5(3)]D[(Bn)GA″]AAFL[PyrS2″][3Thi][Bta]Q-NH2 (staple 1-4, 4-11) [I-1630]",5 µM
3,"Ac-[αAllylPro]D[tBuAla][B5(3)]D[(Me)GA″]AAFL[PyrS2″][3Thi][Bta]Q-NH2 (staple 1-4, 4-11) [I-1631]",30.1 µM
4,"Ac-[αAllylPro]D[tBuAla][B5(3)]D[(Et)GA]AAFN[S8][3Thi][Bta]Q-NH2 (staple 1-4, 4-11; also: earlier eluting staple isomer) [I-1627]",> 20 µM
5,"Ac-[αAllylPro]D[tBuAla][B5(3)]D[(Et)GA]AAFN[S8][3Thi][Bta]Q-NH2 (staple 1-4, 4-11; also: later eluting staple isomer) [I-1628]",> 20 µM
6,"Ac-[αAllylPro]D[tBuAla][B5(3)]D[(Tfp)GA″]AAFL[PyrS2][3Thi][Bta]Q-NH2 (staple 1-4, 4-11) [I-1633]",5.2 µM
7,B1,> 20 µM
8,"Ac-[αAllylPro]D[tBuAla][B5(3)]D[TfeGA]AAFT[PyrS2″][Phe(2-Cl)][Bta][Lys(iPr)]-NH2 (staple 1-4, 4-11) [I-1615]",8 µM
9,"Ac-[αAllylPro]D[tBuAla][B5(3)]D[(Pfbn)GA″]AAFN[S8][3Thi][Bta]Q-NH2 (staple 1-4, 4-11) [I-1624]",42.9 µM
10,"Ac-[αAllylPro]D[tBuAla][B5(3)]D[(sBu)GA]AAFN[PyrS2″][Phe(2-Cl)][Bta]Q-NH2 (staple 1-4, 4-11) [I-1623]",27.7 µM
11,"Ac-[αAllylPro]D[tBuAla][B5(3)]D[(Me)GA]AAFN[PyrS2][3Thi][Bta]Q-NH2 (staple 1-4, 4-11; also: earlier eluting staple isomer) [I-1636]",> 20 µM
12,"Ac-[αAllylPro]D[tBuAla][B5(3)]D[(Tfp)GA]AAFN[S8][3Thi][Bta]Q-NH2 (staple 1-4, 4-11) [I-1625]",29.3 µM
13,"Ac-[αAllylPro]D[tBuAla][B5(16)]D[(Pfbn)GA]AAFN[PyrS2][3Thi][Bta]Q-NH2 (staple 1-4, 4-11) [I-1638]",14.5 µM
14,B2,> 20 µM

# From patent publication US20240116985A1 (published 2024)
